Assay results from patent US20190062389A1 (CYTLIMIC, published 2019).

B1: GPC3-derived peptide KLTTTIGKL (SEQ ID NO: 9) (peptide)
peptide: KLTTTIGKL
notes: Synthetic peptide; only the start position in GPC3 is printed
B2: GPC3-derived peptide MVNELFDSL (SEQ ID NO: 1) (peptide)
peptide: MVNELFDSL
notes: Synthesized by Fmoc solid-phase method, purity 95% or more; the end is derived from the length of 9
B3: GPC3-derived peptide SLQVTRIFL (SEQ ID NO: 4) (peptide)
peptide: SLQVTRIFL
notes: as for B1
B4: GPC3-derived peptide GMIKVKNQL (SEQ ID NO: 10) (peptide)
peptide: GMIKVKNQL
notes: as for B1
B5: GPC3-derived peptide ARLNMEQLL (SEQ ID NO: 11) (peptide)
peptide: ARLNMEQLL
notes: as for B1
B6: GPC3-derived peptide ALNLGIEVI (SEQ ID NO: 7) (peptide)
peptide: ALNLGIEVI
notes: as for B1
B7: GPC3-derived peptide LLQSASMEL (SEQ ID NO: 8) (peptide)
peptide: LLQSASMEL
notes: as for B1
B8: GPC3-derived peptide SALDINECL (SEQ ID NO: 3) (peptide)
peptide: SALDINECL
notes: as for B1
B9: GPC3-derived peptide LFDSLFPVI (SEQ ID NO: 2) (peptide)
peptide: LFDSLFPVI
notes: as for B1
B10: GPC3-derived peptide GYICSHSPV (SEQ ID NO: 6) (peptide)
peptide: GYICSHSPV
notes: as for B1

Each binder was assayed against HLA-A*02:06 molecule (product of HLA-A*02:06 gene) on RA2.6 cells (human) (assay: flow cytometry, RA2.6 cells, peptide dilution series, BB7.2 staining).
Protocol: First, the RA2.6 cells were cultured overnight at 26° C. to accumulate the HLA-A*02:06 molecules unbound to the peptide on the cell surface. Any of peptide dilution series was added thereto for binding at 26° C. for 60 minutes.
Subsequently, the mixture was cultured at 35° C. for 4 hours, resulting in the denaturation of the empty HLA-A*02:06 molecule unbound to the peptide and the loss of its steric structure. A fluorescent labeled monoclonal antibody, BB7.2, specifically recognizing a peptide-bound HLA-A*02:06 molecule, was added thereto, which was then incubated on ice for 20 minutes to stain the cells.
(§1) Thereafter, the amount of fluorescence per cell was measured using a flow cytometer, and the dissociation constant, Kd value, was calculated using a method as published in a paper by the present inventor (Udaka et al., Immunogenetics, 51, 816-828, 2000).

| Binder | Binding Experiment Data (log Kd) |
| --- | --- |
| B1 | -5.03 log Kd (concentration unit not printed) |
| B2 | -6.14 log Kd (concentration unit not printed) |
| B3 | -5.21 log Kd (concentration unit not printed) |
| B4 | -3.36 log Kd (concentration unit not printed) |
| B5 | -2.76 log Kd (concentration unit not printed) |
| B6 | -4.16 log Kd (concentration unit not printed) |
| B7 | -5.88 log Kd (concentration unit not printed) |
| B8 | -6.32 log Kd (concentration unit not printed) |

The binders below were run against T1, HLA-A*02:01 molecule (product of HLA-A*02:01 gene) on T2 cells (human) (assay: flow cytometry, T2 cells with added b2m, peptide dilution series, BB7.2 staining).
T1 construct: MHC class I molecule on TAP-deficient T2 cells; stabilisation read with antibody BB7.2
Protocol: T2 cells and purified β2m were added to stepwise dilution series of a peptide whose binding capacity was to be measured, which was then incubated at 37° C. for 4 hours.
as §1

| Binder | Binding Experiment Data (log Kd) |
| --- | --- |
| B1 | -4.97 log Kd (concentration unit not printed) |
| B2 | -5.31 log Kd (concentration unit not printed) |
| B3 | -6.21 log Kd (concentration unit not printed) |
| B9 | -5.07 log Kd (concentration unit not printed) |
| B4 | -4.76 log Kd (concentration unit not printed) |
| B5 | -3.84 log Kd (concentration unit not printed) |
| B6 | -5.92 log Kd (concentration unit not printed) |
| B7 | -6.14 log Kd (concentration unit not printed) |

What follows are binders tested against T2, HLA-A*24:02 molecule (product of HLA-A*24:02 gene) on C1R-A24 cells (human) (assay: flow cytometry, acid-stripped C1R-A24 cells with added b2m, peptide dilution series, 17A12 staining).
T2 construct: MHC class I molecule emptied of peptide; the peptide under test reassembles with heavy chain and added b2m; assembly stained with antibody 17A12
Protocol: First, C1R-A24 cells were exposed to acidic conditions of pH 3.3 for 30 seconds to dissociate and remove endogenous peptides which were originally bound to the HLA-A*24:02 molecule and a light chain, β2m, which was commonly associated with HLA class I molecules. After neutralization, purified β2m was added to the C1R-A24 cells, which was then added to peptide dilution series. The mixtures were each then incubated on ice for 4 hours. The 3-molecule assembly (MHC-pep) consisting of the HLA-A*24:02 molecule, the peptide, and β2 m which had been reasociated during the incubation was stained with a fluorescent labeled monoclonal antibody, 17A12, recognizing the assembly.
Subsequently, the number of MHC-pep's per C1R-A24 cell (which is proportional to the fluorescent intensity of the above fluorescent antibody) was quantitatively measured using a fluorescent cell analyzer, FACScan (Becton, Dickinson and Company). The binding dissociation constant, Kd value, between the HLA-A*24:02 molecule and the peptide was calculated from the average fluorescent intensity per cell using a method as published in a paper (Udaka et al., Immunogenetics, 51, 816-828, 2000) by the present inventor.

| Binder | Binding Experiment Data (log Kd) |
| --- | --- |
| B1 | -5.21 log Kd (concentration unit not printed) |
| B2 | -4.7 log Kd (concentration unit not printed) |
| B3 | -5.34 log Kd (concentration unit not printed) |
| B9 | -7.43 log Kd (concentration unit not printed) |
| B4 | -6.9 log Kd (concentration unit not printed) |
| B10 | -6.55 log Kd (concentration unit not printed) |
| B5 | -5.2 log Kd (concentration unit not printed) |
| B6 | -3.96 log Kd (concentration unit not printed) |
| B7 | -5.49 log Kd (concentration unit not printed) |
